# Columns and labels:
# [1] = molecular target: FITC-labeled native contortrostatin (Agkistrodon contortrix contortrix); assay: fluorescence polarisation
# [2] = molecular target: FITC-labeled vicrostatin (Agkistrodon contortrix contortrix | not stated); assay: fluorescence polarisation
Substance,Kd [1] [nM],Kd [2] [nM]
purified soluble αvβ3 integrin (from UniProt P06756 31-1048; P05106 27-718) (receptor),6.6,7.4
purified soluble αvβ5 integrin (from UniProt P06756 31-1048; P18084 24-719) (receptor),19.5,41.2
soluble recombinant α5β1 integrin (from UniProt P08648 42-1049; P05556 21-728) (receptor),191,15.2
